Measured values from patent US20050171014A1, “Conjugates of ligand linker and cytotoxic agent and related composition and methods of use” (Government of the United States of America, represented by …, priority 2003, published 2005).
Starred links: 1 amine or outer side, 2 acyl side, 3 side chain; linkers in the order of their positions; H or OH if unused. Non-standard residues stand in square brackets, D forms with d. Residues, ends and D or L forms follow the SMILES beside them. NMePhe(β,β-Me2) = CN[C@H](C(=O)O)C(C)(C)c1ccccc1; X1 = C/C(=C\[C@H](C(C)C)N(C)[*:1])C(=O)[*:2]; Tle = CC(C)(C)[C@H](N)C(=O)O; Nle = CCCC[C@H](N)C(=O)O

Key:
[1] = tested on: cathepsin B and cathespin D
[2] = tested on: gastrin receptor-expressing 3T3 cells; type: cell-based; conditions: methods of Example 7
Protocol: Isogenic cell lines, one transfected with the target cell surface receptor and the parent cell line without detectable receptor expression, were used for determination of selective activity of toxin conjugates. Transfection of NIH/3T3, CHO and HeLa cells (American Type Culture Collection, Manassas, Va.) with gastrin receptor cDNA (prepared as described in Tarasova et al., J. Biol. Chem. 272: 14817-14824 (1997)) was performed as described (Tarasova et al., J Biol. Chem. 272(23): 14817-14824 (1997)). For the tests, the cells were seeded in 96-well plates at a density of 500-1000 cells per well and allowed to attach for 24 hours. The compounds were added to the cells at concentrations ranging from 10 pM to 10 μM and the cells were grown in a CO2 incubator in the presence of compounds for 4-5 days. The cell number was estimated with either the methylthiazolyldiphenyl-tetrazolium bromide (MTT) assay (Alley et al., Cancer Res. 48(3): 589-601 (1988)) or sulforhodamine assay as described in Skehan et al., J. Natl. Cancer Inst. 82(13): 1107-1112 (1990)).

`CCCC[C@H](NC(=O)[C@H](Cc1c[nH]c2ccccc12)NC(=O)CNC(=O)[C@H](Cc1ccc(O)cc1)NC(=O)[C@H](C)NC(=O)[C@H](CCC(=O)O)NC(=O)[C@H](CCC(=O)O)NC(=O)[C@H](CCC(=O)O)NC(=O)[C@H](C)NC(=O)[C@H](CC(C)C)NC(=O)[C@H](C)NC(=O)[C@H](CC(C)C)NC(=O)[C@@H](NC(=O)/C(C)=C/[C@H](C(C)C)N(C)C(=O)[C@@H](NC(=O)[C@@H](NC)C(C)(C)c1ccccc1)C(C)(C)C)C(C)C)C(=O)N[C@@H](CC(=O)O)C(=O)N[C@@H](Cc1ccccc1)C(N)=O` (H-[NMePhe(β,β-Me2)][Tle][X1]VLALAEEEAYGW[Nle]DF-NH2) was tested, and the “products of hydrolysis by lysosomal proteases” value [1] was “generated mostly pentapeptide or SPA110 extended by Val-Leu on the C-terminus” and the IC50 [2] was 1000 nM.
